{"source": "paper PMC11531469", "about": "“Molecular mechanism of parental H3/H4 recycling at a replication fork” (Nature Communications, 2024)", "binders": {"B1": {"name": "Cdc45-7HIS (budding yeast Cdc45, wild type) (natural protein)", "chain": "ISQFSEAYNKILRNSSSHSSCQLVIFVSCLNIDALCATKMLSLLFKKQLVQSQIVPIFGYSELRRHYSQLDDNINSLLLVGFGGVIDLEAFLEIDPQEYVIDTDEKSGEQSFRRDIYVLDAHRPWNLDNIFGSQIIQCFDDGTVDDTLGEQKEAYYKLLELDEESGDDELSGDENDNNGGDDEATDADEVTDEDEEDEDETISNKRGNSSIGPNDLSKRKQRKKQIHEYEGVLEEYYSQGTTVVNSISAQIYSLLSAIGETNLSNLWLNILGTTSLDIAYAQVYNRLYPLLQDEVKRLTPSSRNSVKTPDTLTLNIQPDYYLFLLRHSSLYDSFYYSNYVNAKLSLWNENGKKRLHKMFARMGIPLSTAQETWLYMDHSIKRELGIIFDKNLDRYGLQDIIRDGFVRTLGYRGSISASEFVEALTALLEVGNSTDKDSVKINNDNNDDTDGEEEEDNSAQKLTNLRKRWVSNFWLSWDALDDRKVELLNRGIQLAQDLQRAIFNTGVAILEKKLIKHLRIYRLCVLQDGPDLDLYRNPLTLLRLGNWLIECCAESEDKQLLPMVLASIDENTDTYLVAGLTPRYPRGLDTIHTKKPILNNFSMAFQQITAETDAKVRIDNFESSIIEIRREDLSPFLEKLTLSGLL", "notes": "Cdc45, budding yeast; also called WT; source: Escherichia coli, purified"}}, "settings_in_all_cases": "both partners purified", "key": {"[1]": {"biological_target": "T1, histone H3/H4 tetramer (UniProt P61830 1-136; P02309 1-103)", "experiment": "native gel or EMSA; 0.5 uM Cdc45-7HIS mixed with 0-2 uM H3/H4 tetramer, 15 min at 30 °C; 25 mM HEPES-KOH pH 7.5, 1 mM EDTA, 10% glycerol, 0.05% Tween 20, 750 mM KCl; loss of the free Cdc45 band on 5-20% Tris-Glycine gel, Coomassie; apparent"}, "[2]": {"biological_target": "T1, histone H3/H4 tetramer", "experiment": "native gel or EMSA; 0.5 uM Cdc45-7HIS mixed with 0-2 uM H3/H4 tetramer, 15 min at 30 °C; 25 mM HEPES-KOH pH 7.5, 1 mM EDTA, 10% glycerol, 0.05% Tween 20, 300 mM KCl; loss of the free Cdc45 band on 5-20% Tris-Glycine gel, Coomassie; apparent"}, "[3]": {"biological_target": "T1, histone H3/H4 tetramer", "experiment": "native gel or EMSA; 0.5 uM Cdc45-7HIS mixed with 0-2 uM H3/H4 tetramer, 15 min at 30 °C; 25 mM HEPES-KOH pH 7.5, 1 mM EDTA, 10% glycerol, 0.05% Tween 20, 150 mM KCl; loss of the free Cdc45 band on 5-20% Tris-Glycine gel, Coomassie; apparent"}}, "data": [{"binder": "B1", "values": [{"measurement": "Kd", "setting": "[1]", "value": 216, "unit": "nM"}, {"measurement": "Kd", "setting": "[2]", "value": 90, "unit": "nM"}, {"measurement": "Kd", "setting": "[3]", "value": 68, "unit": "nM"}]}]}
